Measured values: patent US20230002480A1

Experiments:
Assay in all cases: cell-based or functional assay
[1] = molecular target: HIV-1 Env of pseudovirus HIV-001428-2.42 (HIV-1)
[2] = molecular target: HIV-1 Env of pseudovirus MS208.A1 (HIV-1)
[3] = molecular target: HIV-1 Env of pseudovirus WITO4160.33 (HIV-1)
[4] = molecular target: HIV-1 Env of pseudovirus CAAN5342.A2 (HIV-1)
[5] = molecular target: HIV-1 Env of pseudovirus AC10.0.29 (HIV-1)
[6] = molecular target: HIV-1 Env of pseudovirus Q259.d2.17 (HIV-1)
[7] = molecular target: HIV-1 Env of pseudovirus CNE21 (HIV-1)
[8] = molecular target: HIV-1 Env of pseudovirus CAP210.2.00.E8 (HIV-1)
[9] = molecular target: HIV-1 Env of pseudovirus CNE52 (HIV-1)
[10] = molecular target: HIV-1 Env of pseudovirus HIV-16845-2.22 (HIV-1)
[11] = molecular target: HIV-1 Env of pseudovirus REJO4541.67 (HIV-1)
[12] = molecular target: HIV-1 Env of pseudovirus Ce703010054_2A2 (HIV-1)
[13] = molecular target: HIV-1 Env of pseudovirus WEAU_d15_410_787 (HIV-1)
[14] = molecular target: HIV-1 Env of pseudovirus CNE17 (HIV-1)
[15] = molecular target: HIV-1 Env of pseudovirus ZM247v1(Rev-) (HIV-1)
[16] = molecular target: HIV-1 Env of pseudovirus Ce0393_C3 (HIV-1)
[17] = molecular target: HIV-1 Env of pseudovirus Ce1172_H1 (HIV-1)
[18] = molecular target: HIV-1 Env of pseudovirus Ce2060_G9 (HIV-1)
[19] = molecular target: HIV-1 Env of pseudovirus Q461.e2 (HIV-1)
[20] = molecular target: HIV-1 Env of pseudovirus 6240_08_TA5_4622 (HIV-1)
[21] = molecular target: HIV-1 Env of pseudovirus 6535.3 (HIV-1)
[22] = molecular target: HIV-1 Env of pseudovirus RHPA4259.7 (HIV-1)
[23] = molecular target: HIV-1 Env of pseudovirus ZM249M.PL1 (HIV-1)
[24] = molecular target: HIV-1 Env of pseudovirus 7030102001E5(Rev-) (HIV-1)
[25] = molecular target: HIV-1 Env of pseudovirus Ce1176_A3 (HIV-1)
[26] = molecular target: HIV-1 Env of pseudovirus TRO.11 (HIV-1)

10-1074 (antibody) was tested, and the IC50, titer in TZM.bl cells [1] was 0.044 µg/mL, the IC80, titer in TZM.bl cells [1] was 0.261 µg/mL and the IC50, titer in TZM.bl cells [2] was > 50 µg/mL. The IC80, titer in TZM.bl cells [2] was > 50 µg/mL, the IC50, titer in TZM.bl cells [3] was 0.185 µg/mL and the IC80, titer in TZM.bl cells [3] was 2.11 µg/mL. It also gave an IC50, titer in TZM.bl cells [4] of 0.007 µg/mL, an IC80, titer in TZM.bl cells [4] of 0.036 µg/mL and an IC50, titer in TZM.bl cells [5] of 0.022 µg/mL. The IC80, titer in TZM.bl cells [5] was 0.11 µg/mL, the IC50, titer in TZM.bl cells [6] was > 50 µg/mL and the IC80, titer in TZM.bl cells [6] was > 50 µg/mL. The IC50, titer in TZM.bl cells [7] was 0.067 µg/mL, the IC80, titer in TZM.bl cells [7] was 0.181 µg/mL and the IC50, titer in TZM.bl cells [8] was > 50 µg/mL. The IC80, titer in TZM.bl cells [8] was > 50 µg/mL, the IC50, titer in TZM.bl cells [9] was 1.23 µg/mL and the IC80, titer in TZM.bl cells [9] was 13.1 µg/mL. For the same substance, the IC50, titer in TZM.bl cells [10] was 1.17 µg/mL, the IC80, titer in TZM.bl cells [10] was 5.83 µg/mL and the IC50, titer in TZM.bl cells [11] was > 50 µg/mL. The IC80, titer in TZM.bl cells [11] was > 50 µg/mL, the IC50, titer in TZM.bl cells [12] was > 50 µg/mL and the IC80, titer in TZM.bl cells [12] was > 50 µg/mL. It also gave an IC50, titer in TZM.bl cells [13] of 0.104 µg/mL, an IC80, titer in TZM.bl cells [13] of 0.375 µg/mL and an IC50, titer in TZM.bl cells [14] of 2.69 µg/mL. It also gave an IC80, titer in TZM.bl cells [14] of 13.3 µg/mL, an IC50, titer in TZM.bl cells [15] of 0.042 µg/mL and an IC80, titer in TZM.bl cells [15] of 0.186 µg/mL. For the same substance, the IC50, titer in TZM.bl cells [16] was > 50 µg/mL, the IC80, titer in TZM.bl cells [16] was > 50 µg/mL and the IC50, titer in TZM.bl cells [17] was 0.047 µg/mL. The IC80, titer in TZM.bl cells [17] was 0.166 µg/mL, the IC50, titer in TZM.bl cells [18] was > 50 µg/mL and the IC80, titer in TZM.bl cells [18] was > 50 µg/mL. The IC50, titer in TZM.bl cells [19] was > 50 µg/mL, the IC80, titer in TZM.bl cells [19] was > 50 µg/mL and the IC50, titer in TZM.bl cells [20] was 0.068 µg/mL. For the same substance, the IC80, titer in TZM.bl cells [20] was 0.306 µg/mL, the IC50, titer in TZM.bl cells [21] was 0.014 µg/mL and the IC80, titer in TZM.bl cells [21] was 0.026 µg/mL. For the same substance, the IC50, titer in TZM.bl cells [22] was 0.021 µg/mL, the IC80, titer in TZM.bl cells [22] was 0.118 µg/mL and the IC50, titer in TZM.bl cells [23] was > 50 µg/mL. For the same substance, the IC80, titer in TZM.bl cells [23] was > 50 µg/mL, the IC50, titer in TZM.bl cells [24] was 0.006 µg/mL and the IC80, titer in TZM.bl cells [24] was 0.021 µg/mL. It also gave an IC50, titer in TZM.bl cells [25] of 0.019 µg/mL, an IC80, titer in TZM.bl cells [25] of 0.07 µg/mL and an IC50, titer in TZM.bl cells [26] of 0.008 µg/mL. The IC80, titer in TZM.bl cells [26] was 0.057 µg/mL.

Substance 10E8 (antibody) has an IC50, titer in TZM.bl cells [1] of 0.809 µg/mL, an IC80, titer in TZM.bl cells [1] of 7.3 µg/mL and an IC50, titer in TZM.bl cells [2] of 0.609 µg/mL. For the same substance, the IC80, titer in TZM.bl cells [2] was 3.72 µg/mL, the IC50, titer in TZM.bl cells [3] was 0.094 µg/mL and the IC80, titer in TZM.bl cells [3] was 1.23 µg/mL. For the same substance, the IC50, titer in TZM.bl cells [4] was 1.28 µg/mL, the IC80, titer in TZM.bl cells [4] was 9.28 µg/mL and the IC50, titer in TZM.bl cells [5] was 0.132 µg/mL. For the same substance, the IC80, titer in TZM.bl cells [5] was 1.53 µg/mL, the IC50, titer in TZM.bl cells [6] was 4.59 µg/mL and the IC80, titer in TZM.bl cells [6] was > 10 µg/mL. The IC50, titer in TZM.bl cells [7] was 1.9 µg/mL, the IC80, titer in TZM.bl cells [7] was > 10 µg/mL and the IC50, titer in TZM.bl cells [8] was 0.798 µg/mL. It also gave an IC80, titer in TZM.bl cells [8] of 3.89 µg/mL, an IC50, titer in TZM.bl cells [9] of 0.304 µg/mL and an IC80, titer in TZM.bl cells [9] of 3.06 µg/mL. For the same substance, the IC50, titer in TZM.bl cells [10] was 0.068 µg/mL, the IC80, titer in TZM.bl cells [10] was 0.495 µg/mL and the IC50, titer in TZM.bl cells [11] was 0.203 µg/mL. The IC80, titer in TZM.bl cells [11] was 1.69 µg/mL, the IC50, titer in TZM.bl cells [12] was 2.3 µg/mL and the IC80, titer in TZM.bl cells [12] was 8.58 µg/mL. For the same substance, the IC50, titer in TZM.bl cells [13] was > 10 µg/mL, the IC80, titer in TZM.bl cells [13] was > 10 µg/mL and the IC50, titer in TZM.bl cells [14] was 1.11 µg/mL. It also gave an IC80, titer in TZM.bl cells [14] of 5.25 µg/mL, an IC50, titer in TZM.bl cells [15] of 0.506 µg/mL and an IC80, titer in TZM.bl cells [15] of 6.75 µg/mL. It also gave an IC50, titer in TZM.bl cells [16] of 1.18 µg/mL, an IC80, titer in TZM.bl cells [16] of 7.42 µg/mL and an IC50, titer in TZM.bl cells [17] of 0.722 µg/mL. The IC80, titer in TZM.bl cells [17] was 4.82 µg/mL, the IC50, titer in TZM.bl cells [18] was 3.52 µg/mL and the IC80, titer in TZM.bl cells [18] was > 10 µg/mL. The IC50, titer in TZM.bl cells [19] was 2.11 µg/mL, the IC80, titer in TZM.bl cells [19] was > 10 µg/mL and the IC50, titer in TZM.bl cells [20] was 0.756 µg/mL. The IC80, titer in TZM.bl cells [20] was 5.59 µg/mL, the IC50, titer in TZM.bl cells [21] was 0.081 µg/mL and the IC80, titer in TZM.bl cells [21] was 1.32 µg/mL. For the same substance, the IC50, titer in TZM.bl cells [22] was 0.728 µg/mL, the IC80, titer in TZM.bl cells [22] was 5.28 µg/mL and the IC50, titer in TZM.bl cells [23] was 1.51 µg/mL. The IC80, titer in TZM.bl cells [23] was 6.29 µg/mL, the IC50, titer in TZM.bl cells [24] was 6.71 µg/mL and the IC80, titer in TZM.bl cells [24] was > 10 µg/mL. For the same substance, the IC50, titer in TZM.bl cells [25] was 0.867 µg/mL, the IC80, titer in TZM.bl cells [25] was 3.92 µg/mL and the IC50, titer in TZM.bl cells [26] was 0.034 µg/mL. It also gave an IC80, titer in TZM.bl cells [26] of 0.25 µg/mL.
